Source: the supplement of paper PMC9112550, “Optimization of the antimicrobial peptide Bac7 by deep mutational scanning” (BMC Biology, 2022)

Tested on: Escherichia coli TOP10
Assay: shrunken log2 fold change of peptide-encoding DNA abundance (4.5 h post-induction vs induction); higher = less antimicrobial activity (less host growth inhibition)
Conditions: time post-induction: 4.5 h; library: site-saturation at positions 5, 18, 19, 20
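Also: peptides expressed intracellularly from a pBAD plasmid library in pooled LB shake-flask culture, induced with 0.3% L-arabinose, DNA abundance read by NGS, three biological replicates, DESeq2 with apeglm shrinkage.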

Sequence	shrunken log2 fold change
RRIRRRPPRLPRPRPRPEVLPRP	0.211
RRIRRRPPRLPRPRPRPEVPPRP	0.0172
RRIRRRPPRLPRPRPRPEWLPRP	0.794
RRIRRRPPRLPRPRPRPEYMPRP	0.0765
RRIRRRPPRLPRPRPRPFAFPRP	0.0757
RRIRRRPPRLPRPRPRPFCEPRP	0.0918
RRIRRRPPRLPRPRPRPFDFPRP	-0.146
RRIRRRPPRLPRPRPRPFDGPRP	0.079
RRIRRRPPRLPRPRPRPFELPRP	-0.249
RRIRRRPPRLPRPRPRPFETPRP	-0.207
RRIRRRPPRLPRPRPRPFGQPRP	-0.336
RRIRRRPPRLPRPRPRPFGYPRP	-0.018
RRIRRRPPRLPRPRPRPFHCPRP	0.089
RRIRRRPPRLPRPRPRPFHFPRP	-0.413
RRIRRRPPRLPRPRPRPFHIPRP	-0.0758
RRIRRRPPRLPRPRPRPFHMPRP	-0.0949
RRIRRRPPRLPRPRPRPFIKPRP	-0.368
RRIRRRPPRLPRPRPRPFISPRP	0.0236
RRIRRRPPRLPRPRPRPFKVPRP	-0.0272
RRIRRRPPRLPRPRPRPFMFPRP	0.234
RRIRRRPPRLPRPRPRPFNHPRP	-0.275
RRIRRRPPRLPRPRPRPFNSPRP	0.0474
RRIRRRPPRLPRPRPRPFQRPRP	0.608
RRIRRRPPRLPRPRPRPFRKPRP	-0.00961
RRIRRRPPRLPRPRPRPFRPPRP	0.317

Sequence	shrunken log2 fold change
RRIRRRPPRLPRPRPRPFRWPRP	0.279
RRIRRRPPRLPRPRPRPFTKPRP	-0.221
RRIRRRPPRLPRPRPRPFTWPRP	-0.126
RRIRRRPPRLPRPRPRPFVTPRP	-0.0614
RRIRRRPPRLPRPRPRPFVYPRP	-0.0209
RRIRRRPPRLPRPRPRPFWKPRP	0.111
RRIRRRPPRLPRPRPRPFWQPRP	0.0221
RRIRRRPPRLPRPRPRPFYIPRP	-0.039
RRIRRRPPRLPRPRPRPFYWPRP	-0.34
RRIRRRPPRLPRPRPRPGANPRP	0.208
RRIRRRPPRLPRPRPRPGCEPRP	0.354
RRIRRRPPRLPRPRPRPGDDPRP	0.362
RRIRRRPPRLPRPRPRPGDGPRP	0.467
RRIRRRPPRLPRPRPRPGFHPRP	0.0982
RRIRRRPPRLPRPRPRPGFKPRP	0.0975
RRIRRRPPRLPRPRPRPGGGPRP	0.841
RRIRRRPPRLPRPRPRPGHNPRP	0.06
RRIRRRPPRLPRPRPRPGHVPRP	-0.00681
RRIRRRPPRLPRPRPRPGKMPRP	0.0473
RRIRRRPPRLPRPRPRPGMNPRP	0.00468
RRIRRRPPRLPRPRPRPGNTPRP	-0.142
RRIRRRPPRLPRPRPRPGPLPRP	0.415
RRIRRRPPRLPRPRPRPGRYPRP	0.218
RRIRRRPPRLPRPRPRPGTFPRP	-0.578
RRIRRRPPRLPRPRPRPGTPPRP	0.435

Sequence	shrunken log2 fold change
RRIRRRPPRLPRPRPRPGVLPRP	0.465
RRIRRRPPRLPRPRPRPGVYPRP	-0.0241
RRIRRRPPRLPRPRPRPGWCPRP	0.422
RRIRRRPPRLPRPRPRPGWQPRP	0.381
RRIRRRPPRLPRPRPRPGYYPRP	-0.105
RRIRRRPPRLPRPRPRPHCLPRP	-0.192
RRIRRRPPRLPRPRPRPHCPPRP	0.0475
RRIRRRPPRLPRPRPRPHDIPRP	-0.127
RRIRRRPPRLPRPRPRPHGQPRP	0.194
RRIRRRPPRLPRPRPRPHHKPRP	-0.0355
RRIRRRPPRLPRPRPRPHHNPRP	-0.393
RRIRRRPPRLPRPRPRPHILPRP	-0.68
RRIRRRPPRLPRPRPRPHKAPRP	0.434
RRIRRRPPRLPRPRPRPHNKPRP	-0.276
RRIRRRPPRLPRPRPRPHPIPRP	0.35
RRIRRRPPRLPRPRPRPHPMPRP	0.144
RRIRRRPPRLPRPRPRPHPYPRP	-0.069
RRIRRRPPRLPRPRPRPHQEPRP	-0.0374
RRIRRRPPRLPRPRPRPHRDPRP	0.546
RRIRRRPPRLPRPRPRPHRGPRP	-0.0548
RRIRRRPPRLPRPRPRPHRNPRP	-0.317
RRIRRRPPRLPRPRPRPHSHPRP	-0.0882
RRIRRRPPRLPRPRPRPHSIPRP	0.052
RRIRRRPPRLPRPRPRPHTLPRP	-0.182
RRIRRRPPRLPRPRPRPHTNPRP	-0.547

Sequence	shrunken log2 fold change
RRIRRRPPRLPRPRPRPHTRPRP	0.145
RRIRRRPPRLPRPRPRPHVTPRP	-0.154
RRIRRRPPRLPRPRPRPHWCPRP	0.0137
RRIRRRPPRLPRPRPRPHYDPRP	-0.124
RRIRRRPPRLPRPRPRPHYIPRP	-0.662
RRIRRRPPRLPRPRPRPHYYPRP	-0.0297
RRIRRRPPRLPRPRPRPIAAPRP	0.521
RRIRRRPPRLPRPRPRPIFYPRP	-0.0503
RRIRRRPPRLPRPRPRPIGYPRP	0.0143
RRIRRRPPRLPRPRPRPIIHPRP	-0.584
RRIRRRPPRLPRPRPRPILSPRP	0.246
RRIRRRPPRLPRPRPRPIMAPRP	0.107
RRIRRRPPRLPRPRPRPINTPRP	-0.364
RRIRRRPPRLPRPRPRPIPRPRP	0.625
RRIRRRPPRLPRPRPRPIQEPRP	0.0641
RRIRRRPPRLPRPRPRPIQKPRP	-0.218
RRIRRRPPRLPRPRPRPIQQPRP	-0.0495
RRIRRRPPRLPRPRPRPIQVPRP	-0.0268
RRIRRRPPRLPRPRPRPIQYPRP	-0.00028
RRIRRRPPRLPRPRPRPIRHPRP	0.307
RRIRRRPPRLPRPRPRPISEPRP	0.00118
RRIRRRPPRLPRPRPRPISHPRP	-0.215
RRIRRRPPRLPRPRPRPISKPRP	-0.198
RRIRRRPPRLPRPRPRPITIPRP	0.035
RRIRRRPPRLPRPRPRPITKPRP	0.165

Sequence	shrunken log2 fold change
RRIRRRPPRLPRPRPRPITNPRP	-0.19
RRIRRRPPRLPRPRPRPIVHPRP	-0.0757
RRIRRRPPRLPRPRPRPIVPPRP	0.605
RRIRRRPPRLPRPRPRPIWCPRP	-0.0104
RRIRRRPPRLPRPRPRPIWFPRP	0.0342
RRIRRRPPRLPRPRPRPIYQPRP	2.25
RRIRRRPPRLPRPRPRPIYWPRP	0.08
RRIRRRPPRLPRPRPRPKAKPRP	0.0788
RRIRRRPPRLPRPRPRPKANPRP	0.264
RRIRRRPPRLPRPRPRPKCFPRP	0.445
RRIRRRPPRLPRPRPRPKDEPRP	0.189
RRIRRRPPRLPRPRPRPKFSPRP	0.0704
RRIRRRPPRLPRPRPRPKGMPRP	0.218
RRIRRRPPRLPRPRPRPKHEPRP	0.0619
RRIRRRPPRLPRPRPRPKKPPRP	0.974
RRIRRRPPRLPRPRPRPKLEPRP	0.297
RRIRRRPPRLPRPRPRPKLKPRP	0.211
RRIRRRPPRLPRPRPRPKLRPRP	1.25
RRIRRRPPRLPRPRPRPKMEPRP	0.282
RRIRRRPPRLPRPRPRPKPFPRP	0.655
RRIRRRPPRLPRPRPRPKQKPRP	0.264
RRIRRRPPRLPRPRPRPKQMPRP	0.29
RRIRRRPPRLPRPRPRPKSHPRP	-0.172
RRIRRRPPRLPRPRPRPKTWPRP	-0.0361
RRIRRRPPRLPRPRPRPKVCPRP	0.0559

Sequence	shrunken log2 fold change
RRIRRRPPRLPRPRPRPLDNPRP	-0.0599
RRIRRRPPRLPRPRPRPLDRPRP	-0.00997
RRIRRRPPRLPRPRPRPLFKPRP	-0.00471
RRIRRRPPRLPRPRPRPLGHPRP	0.203
RRIRRRPPRLPRPRPRPLGSPRP	0.0898
RRIRRRPPRLPRPRPRPLGTPRP	0.547
RRIRRRPPRLPRPRPRPLHDPRP	0.359
RRIRRRPPRLPRPRPRPLILPRP	0.0353
RRIRRRPPRLPRPRPRPLIPPRP	-0.0124
RRIRRRPPRLPRPRPRPLKMPRP	0.156
RRIRRRPPRLPRPRPRPLLQPRP	0.512
RRIRRRPPRLPRPRPRPLLTPRP	0.399
RRIRRRPPRLPRPRPRPLMIPRP	-0.258
RRIRRRPPRLPRPRPRPLNPPRP	-0.00196
RRIRRRPPRLPRPRPRPLNVPRP	-0.0701
RRIRRRPPRLPRPRPRPLPRPRP	0.748
RRIRRRPPRLPRPRPRPLPVPRP	0.373
RRIRRRPPRLPRPRPRPLQIPRP	0.0422
RRIRRRPPRLPRPRPRPLQTPRP	1.59
RRIRRRPPRLPRPRPRPLRPPRP	1.18
RRIRRRPPRLPRPRPRPLSNPRP	-0.0853
RRIRRRPPRLPRPRPRPLSPPRP	0.411
RRIRRRPPRLPRPRPRPLTIPRP	-0.133
RRIRRRPPRLPRPRPRPLTLPRP	-0.142
RRIRRRPPRLPRPRPRPLWDPRP	0.56
